# Data: the supplement of paper PMC9112550, “Optimization of the antimicrobial peptide Bac7 by deep mutational scanning” (BMC Biology, 2022)
# Tested on: Escherichia coli TOP10
# Test: shrunken log2 fold change of peptide-encoding DNA abundance (4.5 h post-induction vs induction); higher = less antimicrobial activity (less host growth inhibition)
# Conditions: time post-induction: 4.5 h; library: site-saturation at positions 5, 18, 19, 20
# 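Further: peptides expressed intracellularly from a pBAD plasmid library in pooled LB shake-flask culture, induced with 0.3% L-arabinose, DNA abundance read by NGS, three biological replicates, DESeq2 with apeglm shrinkage.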
row,Sequence,shrunken log2 fold change
1,RRIRCRPPRLPRPRPRPKGNPRP,-0.31
2,RRIRGRPPRLPRPRPRPCNAPRP,1.45
3,RRIRFRPPRLPRPRPRPLGCPRP,0.121
4,RRIRARPPRLPRPRPRPEQGPRP,0.388
5,RRIRARPPRLPRPRPRPICEPRP,0.512
6,RRIRSRPPRLPRPRPRPLSLPRP,0.0119
7,RRIRPRPPRLPRPRPRPMNKPRP,-0.551
8,RRIRSRPPRLPRPRPRPSVYPRP,-0.81
9,RRIRMRPPRLPRPRPRPEFPPRP,0.745
10,RRIRGRPPRLPRPRPRPSVHPRP,-0.00458
11,RRIRGRPPRLPRPRPRPHAIPRP,0.46
12,RRIRCRPPRLPRPRPRPGYRPRP,-0.682
13,RRIRQRPPRLPRPRPRPLLHPRP,-0.182
14,RRIRERPPRLPRPRPRPMIDPRP,-0.28
15,RRIRFRPPRLPRPRPRPKDNPRP,-0.000409
16,RRIRMRPPRLPRPRPRPPPDPRP,1.9
17,RRIRDRPPRLPRPRPRPAFGPRP,0.238
18,RRIRYRPPRLPRPRPRPEIMPRP,-0.272
19,RRIRDRPPRLPRPRPRPTKEPRP,-0.0917
20,RRIRPRPPRLPRPRPRPRACPRP,0.456
21,RRIRIRPPRLPRPRPRPFACPRP,-0.0925
22,RRIRCRPPRLPRPRPRPGPGPRP,0.709

row,Sequence,shrunken log2 fold change
1,RRIRCRPPRLPRPRPRPTLVPRP,0.12
2,RRIRPRPPRLPRPRPRPGVPPRP,0.301
3,RRIRKRPPRLPRPRPRPQVRPRP,-0.117
4,RRIRKRPPRLPRPRPRPEPEPRP,1.34
5,RRIRDRPPRLPRPRPRPAQAPRP,-0.0288
6,RRIRERPPRLPRPRPRPTLGPRP,0.0905
7,RRIRPRPPRLPRPRPRPKENPRP,-0.102
8,RRIRNRPPRLPRPRPRPYREPRP,0.0155
9,RRIRWRPPRLPRPRPRPIFCPRP,0.067
10,RRIRKRPPRLPRPRPRPTFHPRP,0.136
11,RRIRRRPPRLPRPRPRPDTRPRP,-0.0459
12,RRIRLRPPRLPRPRPRPACMPRP,0.00459
13,RRIRGRPPRLPRPRPRPIKWPRP,0.434
14,RRIRYRPPRLPRPRPRPRPLPRP,-0.3
15,RRIRFRPPRLPRPRPRPWVMPRP,-0.258
16,RRIRYRPPRLPRPRPRPATEPRP,0.0247
17,RRIRGRPPRLPRPRPRPRQEPRP,0.527
18,RRIRKRPPRLPRPRPRPGHDPRP,0.141
19,RRIRSRPPRLPRPRPRPIHIPRP,-0.157
20,RRIRFRPPRLPRPRPRPFGTPRP,-0.587
21,RRIRPRPPRLPRPRPRPWSAPRP,-0.00633
22,RRIRARPPRLPRPRPRPVNKPRP,-0.117

row,Sequence,shrunken log2 fold change
1,RRIRARPPRLPRPRPRPHHRPRP,0.00443
2,RRIRCRPPRLPRPRPRPQAIPRP,-0.205
3,RRIRERPPRLPRPRPRPFAQPRP,-0.145
4,RRIRMRPPRLPRPRPRPMHMPRP,0.0153
5,RRIRSRPPRLPRPRPRPFEKPRP,0.00827
6,RRIRKRPPRLPRPRPRPDQDPRP,0.0345
7,RRIRPRPPRLPRPRPRPSFFPRP,0.19
8,RRIRRRPPRLPRPRPRPWNGPRP,-0.346
9,RRIRMRPPRLPRPRPRPTIGPRP,0.277
10,RRIRTRPPRLPRPRPRPMGCPRP,-0.145
11,RRIRVRPPRLPRPRPRPANLPRP,-0.163
12,RRIRTRPPRLPRPRPRPNRCPRP,-0.189
13,RRIRSRPPRLPRPRPRPLSNPRP,-0.00773
14,RRIRARPPRLPRPRPRPMYEPRP,-0.0125
15,RRIRSRPPRLPRPRPRPHIIPRP,-0.443
16,RRIRARPPRLPRPRPRPWCHPRP,-0.0135
17,RRIRMRPPRLPRPRPRPPDLPRP,0.129
18,RRIRPRPPRLPRPRPRPAVSPRP,0.171
19,RRIRERPPRLPRPRPRPFALPRP,-0.256
20,RRIRQRPPRLPRPRPRPYDVPRP,-0.00663
21,RRIRSRPPRLPRPRPRPYKRPRP,-0.618
22,RRIRHRPPRLPRPRPRPIPYPRP,-0.3

row,Sequence,shrunken log2 fold change
1,RRIRRRPPRLPRPRPRPEFIPRP,-0.0197
2,RRIRDRPPRLPRPRPRPTFCPRP,0.164
3,RRIRCRPPRLPRPRPRPNNCPRP,-0.636
4,RRIRSRPPRLPRPRPRPSQWPRP,-0.176
5,RRIRGRPPRLPRPRPRPAGSPRP,1.06
6,RRIRTRPPRLPRPRPRPDVIPRP,-0.0157
7,RRIRLRPPRLPRPRPRPEKTPRP,-0.00142
8,RRIRGRPPRLPRPRPRPRSQPRP,1.13
9,RRIRYRPPRLPRPRPRPLNTPRP,-0.234
10,RRIRVRPPRLPRPRPRPYDFPRP,-0.00884
11,RRIRGRPPRLPRPRPRPSEYPRP,-0.0981
12,RRIRQRPPRLPRPRPRPVLIPRP,0.0422
13,RRIRCRPPRLPRPRPRPDYEPRP,-0.373
14,RRIRMRPPRLPRPRPRPWWDPRP,0.142
15,RRIRHRPPRLPRPRPRPPRQPRP,0.108
16,RRIRVRPPRLPRPRPRPVVGPRP,0.126
17,RRIRWRPPRLPRPRPRPRTYPRP,-0.331
18,RRIRIRPPRLPRPRPRPGNQPRP,-0.839
19,RRIRFRPPRLPRPRPRPVDRPRP,0.123
20,RRIRTRPPRLPRPRPRPRSMPRP,0.0542
21,RRIRRRPPRLPRPRPRPAIIPRP,-0.115
22,RRIRCRPPRLPRPRPRPGKGPRP,-0.025

row,Sequence,shrunken log2 fold change
1,RRIRCRPPRLPRPRPRPALQPRP,0.313
2,RRIRARPPRLPRPRPRPLVTPRP,0.178
3,RRIRPRPPRLPRPRPRPKQNPRP,0.0525
4,RRIRHRPPRLPRPRPRPQFNPRP,-0.619
5,RRIRFRPPRLPRPRPRPDRCPRP,-0.208
6,RRIRCRPPRLPRPRPRPRQEPRP,0.121
7,RRIRKRPPRLPRPRPRPDQLPRP,0.107
8,RRIRQRPPRLPRPRPRPCLKPRP,-0.286
9,RRIRPRPPRLPRPRPRPSYYPRP,-0.721
10,RRIRERPPRLPRPRPRPMFVPRP,-0.285
11,RRIRPRPPRLPRPRPRPMQIPRP,0.114
12,RRIRMRPPRLPRPRPRPIGAPRP,0.739
13,RRIRHRPPRLPRPRPRPMVKPRP,-0.0243
14,RRIRPRPPRLPRPRPRPEFHPRP,-0.0272
15,RRIRARPPRLPRPRPRPFESPRP,0.0991
16,RRIRMRPPRLPRPRPRPAFFPRP,0.403
17,RRIRRRPPRLPRPRPRPRCKPRP,0.358
18,RRIRPRPPRLPRPRPRPLQVPRP,0.013
19,RRIRERPPRLPRPRPRPRPNPRP,0.451
20,RRIRHRPPRLPRPRPRPLCQPRP,-0.316
21,RRIRWRPPRLPRPRPRPFHEPRP,-0.0657
